Results published in PMC12724136, “Design of antibody structure-guided epitope vaccines in silico to induce potent immune responses against emerging viruses” (Journal of Virology, 2025).

B1: scFv1: tilapia-derived single-chain antibody fragment with high affinity for TiLV, from phage library (protein)
scFv: MSHRLTCAYSGFSSDIHAVWVRQAAGKGLEWIAYISDSSAYIYYSQSVRGRFTISRDNSRKQVYLQMNSLTTEDSAVYYCTREGSGFAFDYWGKGTGGGGSGGGGSGGGGSVTISATGSSNIGADLSWYLQKTGETPKLLIYKASTRSSGTPPRFSGSTSGSQYTLTISGVQAEDAGDYYCLGDHGGGALTFGGGTK
modifications: left off: 6×His, end not stated, kept | thioredoxin (from the vector pET32a), end not stated, state not stated

How the values were obtained:
scFv1 = experiment: Western blot, binding of S3 epitope peptide and mutants to GST-scFv1; parameters: species or system Nile tilapia (Oreochromis niloticus); details: PVDF membrane with GST-scFv1 incubated with S3 proteins 37°C 2 h; 6×His tag antibody
Protocol: The PET-N-GST-scFv1 plasmid was constructed using seamless cloning technology (Vazyme), and the protein was obtained through a prokaryotic expression system. The scFv1 protein was purified using GST resin (Beyotime) and stored after lyophilization. Similarly, S3-WT, S3-MuT-^Y386^A, S3-MuT-^R393^A, S3-MuT-^L398^A, and S3-MuT were expressed in prokaryotes using the pET32a plasmid. In the Western blot experiment, after blocking, the PVDF membrane containing GST-scFv1 blots was incubated with each of the five S3 proteins at 37°C for 2 h. Subsequently, the anti-6×His tag mouse mAb was used as the primary antibody, and HRP-conjugated goat anti-mouse IgG was used as the secondary antibody. The ECL color development steps were performed as described above.

TiLV-positive antibody = experiment: Depletion of TiLV-positive antibodies by epitope peptides (ELISA); type: binding, tilapia; details: TiLV-positive antibody diluted 800-fold, 10 depletion cycles
Protocol: The epitope peptide to be detected was coated on the ELISA plate at 37°C for 2 h. After washing with PBST, it was blocked with 2% skim milk powder for 2 h to reduce non-specific binding. The TiLV-positive antibody was diluted 800-fold and added to the wells at 100 µL per well. After incubation at room temperature for 20 min, the liquid was aspirated. The ELISA plate was briefly washed, and then, the serum was added again. This process was repeated 10 times, and then, the serum was collected. An ELISA was performed on the collected serum to detect the level of tilapia IgM. Blank and non-depleted negative controls were set up in the experiment. The depletion rate was calculated as follows: Depletion rate = (OD450 of non-depleted sample − OD450 of detected sample) / OD450 of non-depleted sample × 100%.

tilapia IgM = experiment: Serum antibody levels of tilapia after immunization with epitope peptides (ELISA); type: in vivo, Nile tilapia (Oreochromis niloticus); details: 20 µg peptide i.m. with Freund's adjuvant, 7-28 days
Text: Epitope vaccines usually need to be modified with Freund’s adjuvant (Beyotime) before immunization. Briefly, for a single immunization, the epitope peptide is mixed with an equal dose of complete Freund’s adjuvant and then administered to tilapia. For booster immunization, an equal dose of incomplete Freund’s adjuvant is fused with the epitope peptide before vaccination. For the S1, S3, and S10 epitope vaccine immunization programs, healthy Oreochromis niloticus were divided into six groups (70 fish per group) and vaccinated with 20 µg of peptide vaccine by intramuscular injection. During the 1–4 week immunization period, we collected four fish serum samples weekly for immunological analysis.
In the immunization experiments based on the P30-designed vaccine, healthy Nile tilapia were divided into four groups (70 fish per group) and injected intramuscularly with 20 µg of peptide vaccine to complete the primary immunization. After 14 days, the same dose of vaccine was administered again to complete the booster immunization. Serum and tissue samples were collected from 4 fishes in each group weekly after the primary immunization, for a total of 6 weeks. Furthermore, a PBS control was incorporated into both immunization experiments, and the immunization process was conducted in accordance with the aforementioned methodology.
Serum antibody levels after immunization were determined by indirect ELISA. Specifically, serum samples were diluted appropriately, coated to enzyme-labeled plates, and incubated overnight at 4°C. After being washed three times with PBST buffer, each well was incubated with mouse anti-tilapia IgM mAb (1:5,000) at 37°C for 1 h. After washing, each well was incubated with HRP-conjugated goat anti-mouse IgG (1:5,500) for an additional hour. Color development was carried out as described above.

TiLV [1] = experiment: Indirect ELISA, affinity of scFv for TiLV; type: binding, tilapia lake virus (TiLV)
Protocol: The scFv affinity assay was performed by indirect ELISA. The virus (4 × 10^3 copies/μL) was incubated overnight at 4°C after being coated in the wells. After blocking with 5% skim milk, 100 µL of scFv1 and scFv3 proteins at the same concentrations (0.01–100 μg/mL) were added and incubated. Meanwhile, BSA proteins with the same concentration gradient were used as controls. The primary and secondary antibodies were 6×His tag mouse mAb and HRP-conjugated goat anti-mouse IgG, respectively, following the previous protocol. The color development and readings were performed as described above. The scFvs obtained from both the prokaryotic and eukaryotic expression systems were verified for their affinity to TiLV. Meanwhile, the BSA protein was used as a negative control.

TiLV [2] = experiment: In vivo protection study of scFv1 against TiLV infection in tilapia; parameters: species or system Nile tilapia (Oreochromis niloticus); details: scFv1 10 μg/g i.p. 12 h after TiLV
Protocol: Healthy Nile tilapia (Oreochromis niloticus) with a body weight of approximately 3.2±0.6 g were selected. After being temporarily cultured in a circulating water aquaculture system, they were randomly divided into a neutralization experimental group, a virus control group, and a BSA control group, with 30 fish in each group. In the experimental group, 50 μL of TiLV virus suspension (8×10^3 copies/μL) was injected intraperitoneally. Twelve hours later, a solution of scFv1 diluted in PBS at a dose of 10 μg/g was injected intraperitoneally. In the BSA control group, after injecting the same dose of TiLV, BSA solution of the same concentration was used instead of the scFv1. In the virus control group, only virus was injected. Meanwhile, a blank control was set up. After the injection, the mortality of tilapia was observed and recorded continuously for 10 days, and the cumulative mortality rate was calculated.

TiLV [3] = experiment: Cellular fluorescence analysis of binding between scFv1 and TiLV in CIK cells; type: cell-based; details: GST-scFv1 incubated 24 h with TiLV-infected CIK cells
Protocol: After being cultured for 48 h, CIK cells grew into a monolayer and were then continuously incubated with TiLV virus at 28°C for 72 h. Subsequently, the culture medium was replaced, and the cells were incubated with GST-scFv1 protein for 24 h to ensure binding to TiLV particles. The cells were fixed with 4% paraformaldehyde at room temperature for 10 min and then incubated with immunostaining permeabilization buffer with Triton X-100 for 10 min. Subsequently, the GST mouse mAb (1:500, Beyotime) was used as the primary antibody and incubated with CIK cells at 4°C overnight, and FITC-labeled goat anti-mouse IgG (1:500, Beyotime) was used as the secondary antibody. After DAPI staining, the cells were observed under a fluorescence microscope. Cells that were not incubated with GST-scFv1 protein served as the control.

| Molecule | binding to GST-scFv1 by Western blot (scFv1) | TiLV-positive antibody depletion rate (TiLV-positive antibody) | immunogenicity (serum antibody titer) after single immunization (tilapia IgM) | EC50 of the scFv expressed in CHO cells that binds to TiLV (TiLV [1]; indirect ELISA, scFv from CHO expression system) | EC50 for the binding of scFv to TiLV (TiLV [1]; indirect ELISA, scFv from prokaryotic expression, coated virus 4 × 10^3 copies/μL, scFv 0.01–100 μg/mL) | EC50 of scFv1 fold lower than that of scFv3 (TiLV [1]; prokaryotic expression, binding to TiLV) | increase of the survival rate of TiLV-infected tilapia (TiLV [2]) | binding to TiLV on infected CIK cells (green fluorescence) (TiLV [3]) |
| --- | --- | --- | --- | --- | --- | --- | --- | --- |
| GYQLASEIRGTIPLSS [S3WT] | able to bind | ~70% | highest immunogenicity | – | – | – | – | – |
| B1 | – | – | – | 2.098 µg/mL | 33.06 µg/mL | 3.22 fold | ~30% | had bound to TiLV |
